Test results published in patent US20230295597.

T1: von Willebrand factor (vWF), substrate of the ADAMTS-13 activity assay, P04275
T1 chain: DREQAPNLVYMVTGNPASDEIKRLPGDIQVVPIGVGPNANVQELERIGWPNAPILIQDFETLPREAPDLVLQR


Assays:
[1] = target: T1, von Willebrand factor (vWF), substrate …
[2] = target: anti ADAMTS-13 autoantibodies in plasma from patients with acquired ADAMTS-13 deficiency (TTP plasma)
[3] = target: ultralarge von Willebrand factor multimers present in human plasma, P04275

Row | Protein | catalytic activity on vWF [1] | also measured
1 | trADAMTS-13^V313D (truncated ADAMTS-13 mutant, Val313 to Asp) (protein) AAGGILHLELLVAVGPDVFQAHQEDTERYVLTNLNIGAELLRDPSLGAQFRVHLVKMVILTEPEGAPNITANLTSSLLSVCGWSQTINPEDDTDPGHADLVLYITRFDLELPDGNRQVRGVTQLGGACSPTWSCLITEDTGFDLGVTIAHEIGHSFGLEHDGAPGSGCGPSGHVMASDGAAPRAGLAWSPCSRRQLLSLLSAGRARCVWDPPRPQPGSAGHPPDAQPGLYYSANEQCRDAFGPKAVACTFAREHLDMCQALSCHTDPLDQSSCSRLLVPLLDGTECGVEKWCSKGRCRSLVELTPIAAVHGRWSSWGPRSPCSRSCGGGVVTRRRQCNNPRPAFGGRACVGADLQAEMCNTQACEKTQLEFMSQQCARTDGQPLRSSPGGASFYHWGAAVPHSQGDALCRHMCRAIGESFIMKRGDSFLDGTRCMPSGPREDGTLSLCVSGSCRTFGCDGRMDSQQVWDRCQVCGGDNSTCSPRKGSFTAGRAREYVTFLTVTPNLTSVYIANHRPLFTHLAVRIGGRYVVAGKMSISPNTTYPSLLEDGRVEYRVALTEDRLPRLEEIRIWGPLQEDADIQVYRRYGEEYGNLTRPDITFTYFQPKPRQADYKDHDGDYKDHDIDYKDDDDK |  | decrease of proteolytic activity on vWF against the un-mutated variant [1]: replacing V^313 with D (trADAMTS-13^V313D) decreased by more than 50% the proteolytic activity of the resultant ADAMTS-13 variant on vWF (FIG. 6B)
2 | trADAMTS-13^R312A (truncated ADAMTS-13 mutant, Arg312 to Ala) (protein) AAGGILHLELLVAVGPDVFQAHQEDTERYVLTNLNIGAELLRDPSLGAQFRVHLVKMVILTEPEGAPNITANLTSSLLSVCGWSQTINPEDDTDPGHADLVLYITRFDLELPDGNRQVRGVTQLGGACSPTWSCLITEDTGFDLGVTIAHEIGHSFGLEHDGAPGSGCGPSGHVMASDGAAPRAGLAWSPCSRRQLLSLLSAGRARCVWDPPRPQPGSAGHPPDAQPGLYYSANEQCAVAFGPKAVACTFAREHLDMCQALSCHTDPLDQSSCSRLLVPLLDGTECGVEKWCSKGRCRSLVELTPIAAVHGRWSSWGPRSPCSRSCGGGVVTRRRQCNNPRPAFGGRACVGADLQAEMCNTQACEKTQLEFMSQQCARTDGQPLRSSPGGASFYHWGAAVPHSQGDALCRHMCRAIGESFIMKRGDSFLDGTRCMPSGPREDGTLSLCVSGSCRTFGCDGRMDSQQVWDRCQVCGGDNSTCSPRKGSFTAGRAREYVTFLTVTPNLTSVYIANHRPLFTHLAVRIGGRYVVAGKMSISPNTTYPSLLEDGRVEYRVALTEDRLPRLEEIRIWGPLQEDADIQVYRRYGEEYGNLTRPDITFTYFQPKPRQADYKDHDGDYKDHDIDYKDDDDK | trADAMTS-13^R312A catalytic activity was not affected significantly by replacing R^312 with A (FIG. 6B) | 
3 | trADAMTS-13^R312K (truncated ADAMTS-13 mutant, Arg312 to Lys) (protein) AAGGILHLELLVAVGPDVFQAHQEDTERYVLTNLNIGAELLRDPSLGAQFRVHLVKMVILTEPEGAPNITANLTSSLLSVCGWSQTINPEDDTDPGHADLVLYITRFDLELPDGNRQVRGVTQLGGACSPTWSCLITEDTGFDLGVTIAHEIGHSFGLEHDGAPGSGCGPSGHVMASDGAAPRAGLAWSPCSRRQLLSLLSAGRARCVWDPPRPQPGSAGHPPDAQPGLYYSANEQCKVAFGPKAVACTFAREHLDMCQALSCHTDPLDQSSCSRLLVPLLDGTECGVEKWCSKGRCRSLVELTPIAAVHGRWSSWGPRSPCSRSCGGGVVTRRRQCNNPRPAFGGRACVGADLQAEMCNTQACEKTQLEFMSQQCARTDGQPLRSSPGGASFYHWGAAVPHSQGDALCRHMCRAIGESFIMKRGDSFLDGTRCMPSGPREDGTLSLCVSGSCRTFGCDGRMDSQQVWDRCQVCGGDNSTCSPRKGSFTAGRAREYVTFLTVTPNLTSVYIANHRPLFTHLAVRIGGRYVVAGKMSISPNTTYPSLLEDGRVEYRVALTEDRLPRLEEIRIWGPLQEDADIQVYRRYGEEYGNLTRPDITFTYFQPKPRQADYKDHDGDYKDHDIDYKDDDDK | trADAMTS-13^R312K was the most potent variant exhibiting enhanced proteolytic activity on vWF (FIG. 6B), in comparison with the un-mutated protein trADAMTS-13 WT | proteolytic activity on vWF after 2 hours or 24 hours with TTP plasma [2]: The substantial resistance to inhibition of trADAMTS-13^R312K was shown around 2 hours up to 24 hours following incubation with TTP plasma (FIG. 9B)
4 | trADAMTS-13^V313A (truncated ADAMTS-13 mutant, Val313 to Ala) (protein) AAGGILHLELLVAVGPDVFQAHQEDTERYVLTNLNIGAELLRDPSLGAQFRVHLVKMVILTEPEGAPNITANLTSSLLSVCGWSQTINPEDDTDPGHADLVLYITRFDLELPDGNRQVRGVTQLGGACSPTWSCLITEDTGFDLGVTIAHEIGHSFGLEHDGAPGSGCGPSGHVMASDGAAPRAGLAWSPCSRRQLLSLLSAGRARCVWDPPRPQPGSAGHPPDAQPGLYYSANEQCRAAFGPKAVACTFAREHLDMCQALSCHTDPLDQSSCSRLLVPLLDGTECGVEKWCSKGRCRSLVELTPIAAVHGRWSSWGPRSPCSRSCGGGVVTRRRQCNNPRPAFGGRACVGADLQAEMCNTQACEKTQLEFMSQQCARTDGQPLRSSPGGASFYHWGAAVPHSQGDALCRHMCRAIGESFIMKRGDSFLDGTRCMPSGPREDGTLSLCVSGSCRTFGCDGRMDSQQVWDRCQVCGGDNSTCSPRKGSFTAGRAREYVTFLTVTPNLTSVYIANHRPLFTHLAVRIGGRYVVAGKMSISPNTTYPSLLEDGRVEYRVALTEDRLPRLEEIRIWGPLQEDADIQVYRRYGEEYGNLTRPDITFTYFQPKPRQADYKDHDGDYKDHDIDYKDDDDK | Replacing V^313 with A (trADAMTS-13^V313A), also had no significant effect on its proteolytic activity on vWF (FIG. 6B) | 
5 | truncated recombinant human ADAMTS-13 variant (MDTCS), trADAMTS-13 WT (protein) RSAAGGILHLELLVAVGPDVFQAHQEDTERYVLTNLNIGAELLRDPSLGAQFRVHLVKMVILTEPEGAPNITANLTSSLLSVCGWSQTINPEDDTDPGHADLVLYITRFDLELPDGNRQVRGVTQLGGACSPTWSCLITEDTGFDLGVTIAHEIGHSFGLEHDGAPGSGCGPSGHVMASDGAAPRAGLAWSPCSRRQLLSLLSAGRARCVWDPPRPQPGSAGHPPDAQPGLYYSANEQCRVAFGPKAVACTFAREHLDMCQALSCHTDPLDQSSCSRLLVPLLDGTECGVEKWCSKGRCRSLVELTPIAAVHGRWSSWGPRSPCSRSCGGGVVTRRRQCNNPRPAFGGRACVGADLQAEMCNTQACEKTQLEFMSQQCARTDGQPLRSSPGGASFYHWGAAVPHSQGDALCRHMCRAIGESFIMKRGDSFLDGTRCMPSGPREDGTLSLCVSGSCRTFGCDGRMDSQQVWDRCQVCGGDNSTCSPRKGSFTAGRAREYVTFLTVTPNLTSVYIANHRPLFTHLAVRIGGRYVVAGKMSISPNTTYPSLLEDGRVEYRVALTEDRLPRLEEIRIWGPLQEDADIQVYRRYGEEYGNLTRPDITFTYFQPKPRQADYKDHDGDYKDHDIDYKDDDDK |  | proteolysis of vWF multimers in human plasma, trADAMTS-13 300 nM, Western blot with anti-vWF antibody [3]: the inactivation of trADAMTS-13 by tPA prevented the proteolysis of ULvWV multimers present in human plasma (FIG. 4D)
